From paper PMC10511561, “Synergism between CMG helicase and leading strand DNA polymerase at replication fork” (Nature Communications, 2023)

B2: Dpb2 (subunit of Polε in the replisome) (natural protein, yeast)
chain: MFGSGNVLPVKIQPPLLRPLAYRVLSRKYGLSIKSDGLSALAEFVGTNIGANWRQGPATIKFLEQFAAVWKQQERGLFIDQSGVKEVIQEMKEREKVEWSHEHPIQHEENILGRTDDDENNSDDEMPIAADSSLQNVSLSSPMRQPTERDEYKQPFKPESSKALDWRDYFKVINASQQQRFSYNPHKMQFIFVPNKKQNGLGGIAGFLPDIEDKVQMFLTRYYLTNDRVMRNENFQNSDMFNPLSSMVSLQNELSNTNRQQQSSSMSITPIKNLLGRDAQNFLLLGLLNKNFKGNWSLEDPSGSVEIDISQTIPTQGHYYVPGCMVLVEGIYYSVGNKFHVTSMTLPPGERREITLETIGNLDLLGIHGISNNNFIARLDKDLKIRLHLLEKELTDHKFVILGANLFLDDLKIMTALSKILQKLNDDPPTLLIWQGSFTSVPVFASMSSRNISSSTQFKNNFDALATLLSRFDNLTENTTMIFIPGPNDLWGSMVSLGASGTLPQDPIPSAFTKKINKVCKNVVWSSNPTRIAYLSQEIVIFRDDLSGRFKRHRLEFPFNESEDVYTENDNMMSKDTDIVPIDELVKEPDQLPQKVQETRKLVKTILDQGHLSPFLDSLRPISWDLDHTLTLCPIPSTMVLCDTTSAQFDLTYNGCKVINPGSFIHNRRARYMEYVPSSKKTIQEEIYI
notes: Dpb2, yeast, subunit of Polε; NTD 12-98, linker 99-156, PDE domain 157-689 as printed; Chain of m2 as it stands in the replisome structure; also called Dpb2-NTD; Dpb2-OB; source: yeast strain yAJ2, purified as part of Polε (calmodulin resin, TEV elution, Mono Q, Superose 6)

Columns and labels:
Assay in all cases: cryo-EM structure; replisome assembled at room temperature from 0.7 uM CMG, forked DNA and ATPγS, then 1.5 molar excess of Polε, Ctf4, Tof1-Csm3; 100 mM KCl, 25 mM HEPES pH 7.6, 4 mM MgCl2, 4 mM ATPγS; 10-30% glycerol gradient with glutaraldehyde fixation; States I-VI by 3D classification
Conditions in all cases: both partners purified
[1] = molecular target: B2
Mcm5 (subunit of CMG) = molecular target: T1, Mcm5 (subunit of CMG) (yeast, UniProt P29496 1-775)
T1 construct: Mcm5, yeast; Chain of m1 as it stands in the replisome structure; also called Mcm5-CTD; Mcm5-WHD; source: yeast strain yJCZ2, purified as part of CMG (anti-FLAG M2 resin, Mono Q, Superose 6)
T1 sequence: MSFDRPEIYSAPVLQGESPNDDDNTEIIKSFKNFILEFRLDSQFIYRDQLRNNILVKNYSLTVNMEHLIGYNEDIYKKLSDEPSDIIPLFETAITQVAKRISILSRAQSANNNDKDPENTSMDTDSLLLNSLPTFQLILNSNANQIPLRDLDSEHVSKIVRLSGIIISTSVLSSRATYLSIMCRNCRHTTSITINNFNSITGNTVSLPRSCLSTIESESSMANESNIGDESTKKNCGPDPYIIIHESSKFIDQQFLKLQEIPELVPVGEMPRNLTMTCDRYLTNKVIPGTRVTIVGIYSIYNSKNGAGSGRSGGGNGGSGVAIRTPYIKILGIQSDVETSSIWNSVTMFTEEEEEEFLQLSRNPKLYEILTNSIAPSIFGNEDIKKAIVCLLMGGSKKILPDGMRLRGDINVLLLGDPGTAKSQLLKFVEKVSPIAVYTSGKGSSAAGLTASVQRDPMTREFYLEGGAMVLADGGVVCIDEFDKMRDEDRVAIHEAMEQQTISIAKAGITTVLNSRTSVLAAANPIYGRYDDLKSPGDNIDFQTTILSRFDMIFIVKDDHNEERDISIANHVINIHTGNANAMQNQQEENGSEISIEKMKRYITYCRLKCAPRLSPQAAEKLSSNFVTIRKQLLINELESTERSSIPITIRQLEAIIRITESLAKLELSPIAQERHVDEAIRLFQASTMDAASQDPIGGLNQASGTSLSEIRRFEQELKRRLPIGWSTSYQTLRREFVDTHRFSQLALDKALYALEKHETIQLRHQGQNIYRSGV

Mcm3 (subunit of CMG) = molecular target: T2, Mcm3 (subunit of CMG) (yeast, UniProt P24279 1-971)
T2 construct: Mcm3, yeast; Chain of m1 as it stands in the replisome structure; source: yeast strain yJCZ2, purified as part of CMG (anti-FLAG M2 resin, Mono Q, Superose 6)
T2 sequence (P24279 whole entry): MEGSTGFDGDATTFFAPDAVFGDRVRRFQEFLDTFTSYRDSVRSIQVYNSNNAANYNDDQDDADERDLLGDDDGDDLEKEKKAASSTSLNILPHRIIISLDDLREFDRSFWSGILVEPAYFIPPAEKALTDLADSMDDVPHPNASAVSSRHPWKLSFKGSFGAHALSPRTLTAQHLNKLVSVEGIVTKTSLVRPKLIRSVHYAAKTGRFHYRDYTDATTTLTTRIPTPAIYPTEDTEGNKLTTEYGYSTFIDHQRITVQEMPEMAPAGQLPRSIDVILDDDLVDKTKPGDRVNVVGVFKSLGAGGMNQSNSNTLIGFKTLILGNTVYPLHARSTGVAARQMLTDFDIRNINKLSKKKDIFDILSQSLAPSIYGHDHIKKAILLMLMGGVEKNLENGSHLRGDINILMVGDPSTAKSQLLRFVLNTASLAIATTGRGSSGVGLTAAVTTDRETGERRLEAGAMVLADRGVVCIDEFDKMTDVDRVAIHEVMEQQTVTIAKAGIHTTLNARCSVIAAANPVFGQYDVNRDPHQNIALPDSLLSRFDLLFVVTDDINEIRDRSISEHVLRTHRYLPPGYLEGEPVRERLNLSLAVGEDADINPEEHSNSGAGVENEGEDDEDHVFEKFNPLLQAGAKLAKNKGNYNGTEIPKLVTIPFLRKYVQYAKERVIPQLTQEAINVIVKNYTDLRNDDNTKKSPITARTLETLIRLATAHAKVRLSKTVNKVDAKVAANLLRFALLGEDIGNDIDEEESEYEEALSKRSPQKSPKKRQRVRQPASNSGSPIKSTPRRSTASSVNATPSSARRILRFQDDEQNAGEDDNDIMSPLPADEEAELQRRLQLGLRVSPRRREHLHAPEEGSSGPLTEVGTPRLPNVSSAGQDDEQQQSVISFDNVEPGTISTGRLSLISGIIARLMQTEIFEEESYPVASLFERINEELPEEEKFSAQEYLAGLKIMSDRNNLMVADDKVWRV

Tof1-Csm3 = molecular target: T3, Tof1-Csm3 (yeast, UniProt P53840 1-1238; Q04659 1-317)
T3 construct: Tof1, yeast; Csm3, yeast; Purified beforehand as one complex; also called Tof1 and Csm3; components of the fork protection complex (FPC); source: yeast strain yAE48, galactose-induced, purified (calmodulin resin, TEV elution, Mono Q, Superose 6); not shown: CBP, N-terminal, cleaved
T3 sequence (P53840 whole entry, chain 1 of 2): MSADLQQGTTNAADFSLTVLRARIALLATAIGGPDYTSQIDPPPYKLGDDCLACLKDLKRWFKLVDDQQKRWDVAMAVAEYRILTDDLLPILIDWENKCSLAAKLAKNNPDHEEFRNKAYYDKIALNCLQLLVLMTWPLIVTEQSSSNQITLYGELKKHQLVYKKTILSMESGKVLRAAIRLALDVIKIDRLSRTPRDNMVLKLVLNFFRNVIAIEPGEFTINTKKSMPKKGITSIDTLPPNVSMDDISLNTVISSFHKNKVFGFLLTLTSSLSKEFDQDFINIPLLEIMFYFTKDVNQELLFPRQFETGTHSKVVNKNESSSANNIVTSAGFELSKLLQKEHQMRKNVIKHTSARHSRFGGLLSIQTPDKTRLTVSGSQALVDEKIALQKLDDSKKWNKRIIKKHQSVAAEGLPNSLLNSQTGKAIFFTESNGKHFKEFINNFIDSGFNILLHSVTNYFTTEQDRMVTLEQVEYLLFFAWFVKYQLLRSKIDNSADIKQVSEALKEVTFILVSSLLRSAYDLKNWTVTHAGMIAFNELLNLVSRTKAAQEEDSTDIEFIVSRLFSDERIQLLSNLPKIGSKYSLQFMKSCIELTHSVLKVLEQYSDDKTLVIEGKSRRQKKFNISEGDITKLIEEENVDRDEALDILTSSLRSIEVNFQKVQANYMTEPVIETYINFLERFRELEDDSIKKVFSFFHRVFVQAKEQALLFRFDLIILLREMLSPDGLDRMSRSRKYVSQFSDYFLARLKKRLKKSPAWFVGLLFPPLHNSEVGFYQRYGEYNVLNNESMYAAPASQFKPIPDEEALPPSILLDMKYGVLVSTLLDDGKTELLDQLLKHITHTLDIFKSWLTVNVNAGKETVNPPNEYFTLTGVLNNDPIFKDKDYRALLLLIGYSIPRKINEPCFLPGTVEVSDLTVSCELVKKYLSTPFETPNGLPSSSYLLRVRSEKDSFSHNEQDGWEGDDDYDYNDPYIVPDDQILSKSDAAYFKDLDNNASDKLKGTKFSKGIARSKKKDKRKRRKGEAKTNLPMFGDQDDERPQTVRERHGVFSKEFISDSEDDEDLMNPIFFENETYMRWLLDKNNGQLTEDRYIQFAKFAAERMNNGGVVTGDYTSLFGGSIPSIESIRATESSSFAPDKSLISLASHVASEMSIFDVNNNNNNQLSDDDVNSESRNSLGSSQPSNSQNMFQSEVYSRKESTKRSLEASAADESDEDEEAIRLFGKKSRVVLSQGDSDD
T3 sequence (Q04659 whole entry, chain 2 of 2): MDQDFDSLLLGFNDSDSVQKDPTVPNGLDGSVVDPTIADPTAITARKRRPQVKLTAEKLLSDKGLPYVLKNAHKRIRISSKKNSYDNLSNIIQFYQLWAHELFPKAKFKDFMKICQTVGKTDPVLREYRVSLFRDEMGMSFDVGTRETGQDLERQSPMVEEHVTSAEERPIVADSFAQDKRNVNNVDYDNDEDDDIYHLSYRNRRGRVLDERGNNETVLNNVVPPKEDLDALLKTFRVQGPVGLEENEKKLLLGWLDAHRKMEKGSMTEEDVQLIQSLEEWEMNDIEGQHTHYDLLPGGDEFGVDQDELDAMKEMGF

B1: Psf1 (subunit of GINS in CMG) (natural protein, yeast)
chain: MYGDLGNKLVLEAKRTKQLYARSNQDVNLPMYHEDIIRNILKEVSNLRKNTEYLKEQQQLGMLDDKVAKCQYFVTLLCMERNKRCLLAYQRLRTDILDSMAWNNNGLDLMSSITFSQQDTNNLSHQEQEYLKEYCDLITDLKSGDLVDIDLSGSLVPPSDVFIDVRVLKDAGEIQTEYGVFNLIKDSQFFVRQSDVERLIQQGYLQKI
notes: Psf1, yeast, subunit of GINS; Chain of m1 as it stands in the replisome structure; also called Psf1 B domain; Psf1-B domain; source: yeast strain yJCZ2, purified as part of CMG (anti-FLAG M2 resin, Mono Q, Superose 6)
**Q.** Does B1 bind [1]?
**A.** Result: binds

**Q.** Does B2 bind (Mcm5 (subunit of CMG))?
**A.** Result: binds

**Q.** Does B2 bind (Mcm3 (subunit of CMG))?
**A.** Result: binds

B3: Mcm6 (subunit of CMG) (natural protein, yeast)
chain: MSSPFPADTPSSNRPSNSSPPPSSIGAGFGSSSGLDSQIGSRLHFPSSSQPHVSNSQTGPFVNDSTQFSSQRLQTDGSATNDMEGNEPARSFKSRALNHVKKVDDVTGEKVREAFEQFLEDFSVQSTDTGEVEKVYRAQIEFMKIYDLNTIYIDYQHLSMRENGALAMAISEQYYRFLPFLQKGLRRVVRKYAPELLNTSDSLKRSEGDEGQADEDEQQDDDMNGSSLPRDSGSSAAPGNGTSAMATRSITTSTSPEQTERVFQISFFNLPTVHRIRDIRSEKIGSLLSISGTVTRTSEVRPELYKASFTCDMCRAIVDNVEQSFKYTEPTFCPNPSCENRAFWTLNVTRSRFLDWQKVRIQENANEIPTGSMPRTLDVILRGDSVERAKPGDRCKFTGVEIVVPDVTQLGLPGVKPSSTLDTRGISKTTEGLNSGVTGLRSLGVRDLTYKISFLACHVISIGSNIGASSPDANSNNRETELQMAANLQANNVYQDNERDQEVFLNSLSSDEINELKEMVKDEHIYDKLVRSIAPAVFGHEAVKKGILLQMLGGVHKSTVEGIKLRGDINICVVGDPSTSKSQFLKYVVGFAPRSVYTSGKASSAAGLTAAVVRDEEGGDYTIEAGALMLADNGICCIDEFDKMDISDQVAIHEAMEQQTISIAKAGIHATLNARTSILAAANPVGGRYNRKLSLRGNLNMTAPIMSRFDLFFVILDDCNEKIDTELASHIVDLHMKRDEAIEPPFSAEQLRRYIKYARTFKPILTKEARSYLVEKYKELRKDDAQGFSRSSYRITVRQLESMIRLSEAIARANCVDEITPSFIAEAYDLLRQSIIRVDVDDVEMDEEFDNIESQSHAASGNNDDNDDGTGSGVITSEPPADIEEGQSEATARPGTSEKKKTTVTYDKYVSMMNMIVRKIAEVDREGAEELTAVDIVDWYLLQKENDLGSLAEYWEERRLAFKVIKRLVKDRILMEIHGTRHNLRDLENEENENNKTVYVIHPNCEVLDQLEPQDSS
notes: Mcm6, yeast; Chain of m1 as it stands in the replisome structure; source: yeast strain yJCZ2, purified as part of CMG (anti-FLAG M2 resin, Mono Q, Superose 6)
**Q.** Does B3 bind (Tof1-Csm3)?
**A.** Result: binds

B4: Mcm4 (subunit of CMG) (natural protein, yeast)
chain: MSQQSSSPTKEDNNSSSPVVPNPDSVPPQLSSPALFYSSSSSQGDIYGRNNSQNLSQGEGNIRAAIGSSPLNFPSSSQRQNSDVFQSQGRQGRIRSSASASGRSRYHSDLRSDRALPTSSSSLGRNGQNRVHMRRNDIHTSDLSSPRRIVDFDTRSGVNTLDTSSSSAPPSEASEPLRIIWGTNVSIQECTTNFRNFLMSFKYKFRKILDEREEFINNTTDEELYYIKQLNEMRELGTSNLNLDARNLLAYKQTEDLYHQLLNYPQEVISIMDQTIKDCMVSLIVDNNLDYDLDEIETKFYKVRPYNVGSCKGMRELNPNDIDKLINLKGLVLRSTPVIPDMKVAFFKCNVCDHTMAVEIDRGVIQEPARCERIDCNEPNSMSLIHNRCSFADKQVIKLQETPDFVPDGQTPHSISLCVYDELVDSCRAGDRIEVTGTFRSIPIRANSRQRVLKSLYKTYVDVVHVKKVSDKRLDVDTSTIEQELMQNKVDHNEVEEVRQITDQDLAKIREVAAREDLYSLLARSIAPSIYELEDVKKGILLQLFGGTNKTFTKGGRYRGDINILLCGDPSTSKSQILQYVHKITPRGVYTSGKGSSAVGLTAYITRDVDTKQLVLESGALVLSDGGVCCIDEFDKMSDSTRSVLHEVMEQQTISIAKAGIITTLNARSSILASANPIGSRYNPNLPVTENIDLPPPLLSRFDLVYLVLDKVDEKNDRELAKHLTNLYLEDKPEHISQDDVLPVEFLTMYISYAKEHIHPIITEAAKTELVRAYVGMRKMGDDSRSDEKRITATTRQLESMIRLAEAHAKMKLKNVVELEDVQEAVRLIRSAIKDYATDPKTGKIDMNLVQTGKSVIQRKLQEDLSREIMNVLKDQASDSMSFNELIKQINEHSQDRVESSDIQEALSRLQQEDKVIVLGEGVRRSVRLNNRV
notes: Mcm4, yeast; Chain of m1 as it stands in the replisome structure; source: yeast strain yJCZ2, purified as part of CMG (anti-FLAG M2 resin, Mono Q, Superose 6)
**Q.** Does B4 bind (Tof1-Csm3)?
**A.** Result: binds
